Data published in patent publication US20160331662A1, “Compositions that Inhibit and Prevent the Formation of Dental Caries and Methods of Using the Same” (priority 2014, published 2016).
pKd: −log10 of the molar value.

Legend:
[1] = target: iSRCR123 (Deglycosylated) (human) (UniProt Q9UGM3); test: SPR, analyte over ligand deglycosylated on the CM5 chip, 1:1 Langmuir model
[2] = target: iSRCR1 (Deglycosylated) (human) (UniProt Q9UGM3); test: as above
[3] = target: salivary agglutinin (SAG) (human) (UniProt Q9UGM3); test: SPR, analyte over SAG immobilized on CM5 chip, 1:1 Langmuir model
[4] = target: iSRCR123 (human) (UniProt Q9UGM3); test: SPR, analyte over ligand immobilized on CM5 chip, 1:1 Langmuir model
Chain of iSRCR123 (human) (Q9UGM3 102-463 limits assumed): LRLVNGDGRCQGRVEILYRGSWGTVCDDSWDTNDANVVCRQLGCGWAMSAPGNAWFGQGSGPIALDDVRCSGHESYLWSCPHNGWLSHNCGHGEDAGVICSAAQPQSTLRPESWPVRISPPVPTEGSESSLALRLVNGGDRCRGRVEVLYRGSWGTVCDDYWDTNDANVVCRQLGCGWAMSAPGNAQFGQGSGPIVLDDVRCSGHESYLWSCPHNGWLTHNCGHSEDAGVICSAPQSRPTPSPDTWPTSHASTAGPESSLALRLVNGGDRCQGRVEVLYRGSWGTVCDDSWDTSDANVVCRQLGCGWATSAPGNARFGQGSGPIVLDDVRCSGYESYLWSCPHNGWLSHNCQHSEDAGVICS

Chain of iSRCR1 (Deglycosylated) (human) (Q9UGM3 102-202): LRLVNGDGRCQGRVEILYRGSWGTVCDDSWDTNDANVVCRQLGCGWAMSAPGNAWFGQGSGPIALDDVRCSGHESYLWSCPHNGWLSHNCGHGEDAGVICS
Chain of salivary agglutinin (SAG) (human) (Q9UGM3 whole entry): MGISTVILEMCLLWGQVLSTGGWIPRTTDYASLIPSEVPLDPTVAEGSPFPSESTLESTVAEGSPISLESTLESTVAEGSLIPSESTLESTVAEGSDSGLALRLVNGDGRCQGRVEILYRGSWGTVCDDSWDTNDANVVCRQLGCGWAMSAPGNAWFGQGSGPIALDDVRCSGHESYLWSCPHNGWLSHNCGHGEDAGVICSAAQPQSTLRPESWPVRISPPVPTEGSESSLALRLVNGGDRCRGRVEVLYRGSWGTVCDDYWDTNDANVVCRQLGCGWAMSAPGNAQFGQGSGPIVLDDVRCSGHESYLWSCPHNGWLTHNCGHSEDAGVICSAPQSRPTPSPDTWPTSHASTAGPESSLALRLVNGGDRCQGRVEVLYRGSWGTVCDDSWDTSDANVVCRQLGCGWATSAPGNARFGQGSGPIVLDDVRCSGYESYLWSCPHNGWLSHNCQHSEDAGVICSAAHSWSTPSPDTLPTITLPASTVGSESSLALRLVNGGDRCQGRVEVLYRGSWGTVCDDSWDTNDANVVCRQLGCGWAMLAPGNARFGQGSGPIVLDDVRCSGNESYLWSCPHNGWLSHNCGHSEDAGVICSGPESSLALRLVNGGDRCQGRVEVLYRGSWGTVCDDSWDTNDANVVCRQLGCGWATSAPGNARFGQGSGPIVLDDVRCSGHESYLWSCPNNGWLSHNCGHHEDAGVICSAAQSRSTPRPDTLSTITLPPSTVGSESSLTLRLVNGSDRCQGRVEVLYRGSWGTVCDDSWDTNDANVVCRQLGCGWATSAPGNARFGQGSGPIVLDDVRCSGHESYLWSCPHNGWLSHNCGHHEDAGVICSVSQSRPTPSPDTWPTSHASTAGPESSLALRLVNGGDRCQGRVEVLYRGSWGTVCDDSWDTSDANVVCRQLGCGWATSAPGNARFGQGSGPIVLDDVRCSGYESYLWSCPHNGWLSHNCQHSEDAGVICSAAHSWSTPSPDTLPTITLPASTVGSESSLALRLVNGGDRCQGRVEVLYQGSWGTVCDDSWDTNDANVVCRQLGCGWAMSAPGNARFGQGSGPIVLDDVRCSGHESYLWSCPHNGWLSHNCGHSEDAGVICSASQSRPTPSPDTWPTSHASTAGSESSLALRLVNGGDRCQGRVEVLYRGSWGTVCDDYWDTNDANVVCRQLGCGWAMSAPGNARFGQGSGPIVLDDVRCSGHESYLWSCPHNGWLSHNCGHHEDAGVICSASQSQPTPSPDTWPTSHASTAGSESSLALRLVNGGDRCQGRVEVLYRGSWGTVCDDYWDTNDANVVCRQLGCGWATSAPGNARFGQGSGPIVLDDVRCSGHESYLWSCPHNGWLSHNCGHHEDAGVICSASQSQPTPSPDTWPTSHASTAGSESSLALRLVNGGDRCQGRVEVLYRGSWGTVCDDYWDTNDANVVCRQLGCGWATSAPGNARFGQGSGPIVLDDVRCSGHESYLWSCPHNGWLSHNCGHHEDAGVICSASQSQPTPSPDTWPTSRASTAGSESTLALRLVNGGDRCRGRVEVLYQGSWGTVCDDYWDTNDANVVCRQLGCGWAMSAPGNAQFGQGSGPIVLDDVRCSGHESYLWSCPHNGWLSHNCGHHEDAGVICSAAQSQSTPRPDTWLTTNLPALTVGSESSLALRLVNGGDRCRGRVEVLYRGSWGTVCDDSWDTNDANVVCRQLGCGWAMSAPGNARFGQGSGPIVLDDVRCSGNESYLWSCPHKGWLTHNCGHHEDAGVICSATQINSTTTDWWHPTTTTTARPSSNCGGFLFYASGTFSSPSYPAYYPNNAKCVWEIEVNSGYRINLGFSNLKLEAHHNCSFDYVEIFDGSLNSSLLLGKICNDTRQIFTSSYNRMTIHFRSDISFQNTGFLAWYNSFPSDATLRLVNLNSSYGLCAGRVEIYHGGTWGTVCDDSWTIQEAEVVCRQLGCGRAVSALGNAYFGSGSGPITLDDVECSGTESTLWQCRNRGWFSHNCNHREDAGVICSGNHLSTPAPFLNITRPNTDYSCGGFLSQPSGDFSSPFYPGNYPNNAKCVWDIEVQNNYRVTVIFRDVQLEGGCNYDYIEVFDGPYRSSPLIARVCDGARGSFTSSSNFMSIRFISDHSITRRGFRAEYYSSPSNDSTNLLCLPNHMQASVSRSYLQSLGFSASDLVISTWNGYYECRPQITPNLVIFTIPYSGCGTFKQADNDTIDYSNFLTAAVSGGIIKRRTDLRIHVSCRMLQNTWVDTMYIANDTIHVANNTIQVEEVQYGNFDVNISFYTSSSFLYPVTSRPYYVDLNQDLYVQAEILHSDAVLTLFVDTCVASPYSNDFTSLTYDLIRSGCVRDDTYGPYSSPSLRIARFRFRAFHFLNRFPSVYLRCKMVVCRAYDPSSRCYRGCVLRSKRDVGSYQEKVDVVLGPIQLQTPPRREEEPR
Chain of iSRCR123 (Deglycosylated) (human) (Q9UGM3 102-463 limits assumed): as the sequence (Q9UGM3 102-463 limits assumed) above

Which results are given for “C123^SspB (S. gordonii DL1 SspB, residues 913-1406) (from UniProt P16952 913-1406)”?
pKd [1]: 5.21; Ka [2]: 921000 M⁻¹; pKd [2]: 5.96; Ka [3]: 1.07e+07 M⁻¹; pKd [3]: 7.03

With “A3VP1^SspB (S. gordonii DL1 SspB, residues 386-805) (from UniProt P16952 386-805)” as the substance, how does the Ka [1] read?
The Ka was 1.38e+06 M⁻¹.

What about the pKd [1] of the same substance?
The pKd was 6.14.

And the pKd [2]?
Its pKd is 6.47.

And the Ka [4]?
The Ka was 5.53e+07 M⁻¹.

And the pKd [4]?
The pKd was 7.74.

And the Ka [3]?
The Ka was 3.19e+07 M⁻¹.

And the pKd [3]?
The pKd was 7.50.
